Results: publication PMC3936849 (2014)

Tests used:
Assay in all cases: SPR
[1] = biological target: T1, BMPRII extracellular domain, C-terminal Fc-tagged chimera (UniProt Q13873 27-150)
T1 chain: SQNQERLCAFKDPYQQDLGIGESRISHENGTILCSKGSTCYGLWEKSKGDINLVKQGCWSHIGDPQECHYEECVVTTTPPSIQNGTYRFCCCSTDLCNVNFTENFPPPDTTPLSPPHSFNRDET

[2] = biological target: T2, ActRIIa extracellular domain, C-terminal Fc-tagged chimera (UniProt P27037 20-135)
[3] = biological target: T3, ActRIIb extracellular domain, C-terminal Fc-tagged chimera (UniProt Q13705 19-137)
T3 chain: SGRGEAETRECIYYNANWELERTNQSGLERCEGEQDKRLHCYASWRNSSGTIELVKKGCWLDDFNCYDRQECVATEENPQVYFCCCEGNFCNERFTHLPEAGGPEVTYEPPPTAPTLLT

[4] = biological target: T4, ALK1 extracellular domain, C-terminal Fc-tagged chimera (UniProt P37023 22-118)
T4 sequence (P37023 22-118, change not shown): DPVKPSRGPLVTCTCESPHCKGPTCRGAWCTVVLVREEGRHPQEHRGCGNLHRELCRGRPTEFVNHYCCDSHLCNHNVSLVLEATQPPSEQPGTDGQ

[5] = biological target: T1, BMPRII extracellular domain, C-terminal …
[6] = biological target: T2, ActRIIa extracellular domain, …; remark: listed apart in the source
[7] = biological target: T3, ActRIIb extracellular domain, …
[8] = biological target: T4, ALK1 extracellular domain, C-terminal …; remark: listed apart in the source

T2 sequence (P27037 20-135, change not shown): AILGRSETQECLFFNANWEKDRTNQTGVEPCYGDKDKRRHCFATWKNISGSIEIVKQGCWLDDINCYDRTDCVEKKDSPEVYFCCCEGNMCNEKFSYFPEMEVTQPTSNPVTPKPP

B1: MB109 (E. coli-derived mature domain of human bone morphogenetic protein-9, refolded functional dimer) (ligand)
chain: MSAGAGSHCQKTSLRVNFEDIGWDSWIIAPKEYEAYECKGGCFFPLADDVTPTKHAIVQTLVHLKFPTKVGKACCVPTKLSPISVLYKDDMGVPTLKYHYEGMSVAECGCR
koff [1]: 0.00153 s⁻¹
koff [2]: 0.0121 s⁻¹
koff [3]: 0.00152 s⁻¹
koff [4]: 0.000884 s⁻¹
Kd [5]: 330 pM
Kd [6]: 4270 pM
Kd [7]: 154 pM
Kd [8]: 209 pM
